± gives the standard deviation of the averaged measurements.
Tested on: ATP
Test: switch fluorescence ratio, 500 uM ATP over buffer (Cy3 cluster intensity, sum of 5 cycles each) (fold (ratio)); higher = stronger signal-on switching upon ATP binding; sequences stand for … in TCGTCGGCAGCGTCAGATGTGTATAAGAGACAGTTTTTTTTTTTTTTTTTTTTTTTTT…TC
Details: aptamer strand: ATP DNA aptamer (quencher-CACCTGGGGGAGTATTGCGGAGGAAGG + anchor), 100 nM annealed; ATP concentration: 500 uM
Procedure, shortened: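 Between each of five buffer/ATP cycles, the flow-cell was stripped with NaOH and re-annealed. Each cycle imaged Cy3-labelled switching-strand clusters, annealed to 100 nM quencher-labelled ATP aptamer on a modified Illumina MiSeq flow-cell, first in selection buffer and then after 15 min with 500 uM ATP at 22 °C. The fluorescence ratio is summed target-cycle over summed buffer-cycle Cy3 intensity per cluster, averaged per switch-domain sequence, with clusters outside 100-1000 RFU excluded.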
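Also: ATP exposure 15 min at 22 °C before imaging.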

Sequence | switch fluorescence ratio
ATTTGCTTAG | 0.994 ± 0.021
ATTTGGAATT | 1 ± 0.027
ATTTGGACGT | 1.02 ± 0.016
ATTTGGCGGT | 0.997 ± 0.025
ATTTGGGACA | 1.01 ± 0.012
ATTTGGGCTT | 1.05 ± 0.12
ATTTGGGGCT | 0.981 ± 0.017
ATTTGGTTTT | 0.999 ± 0.04
ATTTGTAATC | 1.22 ± 0.31
ATTTGTATTG | 1.01 ± 0.022
ATTTGTGTAC | 1.047 ± 0.0071
ATTTGTGTTA | 1.01 ± 0.013
ATTTGTTAAG | 1 ± 0.016
ATTTGTTATC | 0.98096 ± 8.4e-05
ATTTGTTGGT | 0.991 ± 0.013
ATTTGTTTTT | 0.978 ± 0.01
ATTTTAACT | 0.988 ± 0.013
ATTTTAACTT | 1.35 ± 0.44
ATTTTAAGGC | 1.002 ± 0.0054
ATTTTAGAAA | 1.01 ± 0.015
ATTTTAGAAC | 1.013 ± 0.0031
ATTTTAGAGT | 1.018 ± 0.0063
ATTTTAGCGT | 0.9958 ± 0.0062
ATTTTCAGTT | 1.01 ± 0.026
ATTTTCATGG | 0.954 ± 0.02

Sequence | switch fluorescence ratio
ATTTTCCAGT | 1.01 ± 0.011
ATTTTCGGCG | 1.001 ± 0.0054
ATTTTCTTCA | 1.02 ± 0.016
ATTTTCTTTT | 1.06 ± 0.079
ATTTTGAAGC | 0.991 ± 0.016
ATTTTGAGTT | 0.982 ± 0.016
ATTTTGCAAG | 0.994 ± 0.018
ATTTTGGAGA | 1.02 ± 0.026
ATTTTGGAGG | 0.9908 ± 0.0057
ATTTTGTCAT | 0.972 ± 0.019
ATTTTGTCCT | 1.08 ± 0.11
ATTTTTAGAA | 1.03 ± 0.013
ATTTTTAGTT | 0.991 ± 0.037
ATTTTTCGGC | 0.99 ± 0.02
ATTTTTCTTT | 0.992 ± 0.012
ATTTTTGATT | 0.984 ± 0.018
ATTTTTGCGC | 1.03 ± 0.055
ATTTTTGGGT | 0.994 ± 0.031
ATTTTTGTTC | 1.0252 ± 0.00061
ATTTTTTAAC | 1.019 ± 0.0096
ATTTTTTAGG | 0.993 ± 0.025
ATTTTTTCAA | 0.981 ± 0.015
ATTTTTTCTG | 0.9907 ± 0.0059
ATTTTTTGCG | 1 ± 0.028
ATTTTTTGGC | 0.996 ± 0.01

Sequence | switch fluorescence ratio
ATTTTTTGTA | 0.984 ± 0.026
ATTTTTTTTC | 0.989 ± 0.022
CAAAAAATAC | 2.23 ± 1.7
CAAAAAATC | 1.02 ± 0.028
CAAAAAGAGC | 0.976 ± 0.015
CAAAAAGGGA | 1.0178 ± 0.00094
CAAAAAGTTT | 1.05 ± 0.097
CAAAAGACGG | 1.04 ± 0.02
CAAAAGTGAT | 1.01 ± 0.024
CAAAAGTGGT | 1.01 ± 0.018
CAAACGCCCG | 0.9968 ± 0.0073
CAAACGTGTG | 0.991 ± 0.041
CAAACTAGC | 0.99 ± 0.003
CAAAGAGTGG | 1.0063 ± 0.00092
CAAAGATAGG | 0.996 ± 0.018
CAAAGCAAAA | 2.36 ± 2
CAAAGCACCG | 1.031 ± 0.0063
CAAAGCATCA | 1.05 ± 0.029
CAAAGGACCT | 1.136 ± 0.0082
CAAAGGACGG | 1.25 ± 0.38
CAAAGGATAC | 1.2 ± 0.013
CAAAGGGATA | 1 ± 0.054
CAAAGGTCTC | 0.986 ± 0.023
CAAAGTAGGC | 0.958 ± 0.018
CAAAGTGAAC | 1.01 ± 0.017

Sequence | switch fluorescence ratio
CAAATAACGG | 1 ± 0.023
CAAATAATAG | 0.977 ± 0.033
CAAATAGTCG | 1.01 ± 0.027
CAAATATACT | 1.14 ± 0.13
CAAATGGAAG | 0.998 ± 0.028
CAAATGGGAA | 0.99 ± 0.016
CAAATGGGTC | 1.06 ± 0.046
CAAATGTCGT | 1.008 ± 0.008
CAACACGGTG | 1.08 ± 0.038
CAACAGGGGG | 1.06 ± 0.056
CAACATGGAG | 0.9972 ± 0.0089
CAACCCGGTA | 1.51 ± 0.7
CAACCGAGGC | 1.18 ± 0.028
CAACCGGTTG | 0.984 ± 0.017
CAACCTGGGA | 1.022 ± 0.0017
CAACGGGCGG | 1 ± 0.019
CAACGGTTTC | 1.01 ± 0.019
CAACGTTTTG | 0.977 ± 0.023
CAACTGCACG | 1.22 ± 0.079
CAACTGGCGG | 0.99 ± 0.017
CAACTTGAAG | 0.977 ± 0.02
CAACTTTAGT | 1.031 ± 0.0035
CAAGAAATCT | 1.0078 ± 0.0005
CAAGACGTTG | 0.974 ± 0.012
CAAGAGAATG | 0.999 ± 0.037

Sequence | switch fluorescence ratio
CAAGAGGGTG | 1.11 ± 0.15
CAAGCGGACT | 1.06 ± 0.049
CAAGCGGTT | 0.9628 ± 0.0056
CAAGCTTAAA | 0.9729 ± 0.009
CAAGCTTAGG | 0.995 ± 0.014
CAAGGAATTT | 0.969 ± 0.023
CAAGGACAGC | 1.05 ± 0.047
CAAGGAGGGA | 1.01 ± 0.049
CAAGGCTGGG | 1.02 ± 0.049
CAAGGGGGAT | 1.01 ± 0.013
CAAGGGGGTG | 1.03 ± 0.03
CAAGGGGTTT | 0.99 ± 0.033
CAAGGTCCGA | 0.99445 ± 0.00086
CAAGGTCGGC | 1 ± 0.04
CAAGGTTTAC | 0.9881 ± 0.00047
CAAGTAAGTT | 0.9884 ± 0.0063
CAAGTATTGT | 0.999 ± 0.025
CAAGTCCATT | 1.01 ± 0.034
CAAGTCCGTT | 1 ± 0.037
CAAGTCTGGG | 0.9879 ± 0.0059
CAAGTGAGGC | 0.987 ± 0.075
CAAGTGGCAT | 1.017 ± 0.0079
CAAGTTCGTG | 1.002 ± 0.0089
CAAGTTTATT | 1.001 ± 0.01
CAATAGAAGT | 0.979 ± 0.037

Sequence | switch fluorescence ratio
CAATAGGCAG | 0.9824 ± 0.0053
CAATAGTCAG | 1.04 ± 0.015
CAATATATCT | 1.01 ± 0.019
CAATATCCGA | 1 ± 0.026
CAATATTTG | 0.994 ± 0.015
CAATCATGTT | 1.02 ± 0.027
CAATCGACTC | 1.047 ± 0.0037
CAATCTGCGC | 1.07 ± 0.043
CAATCTTGTC | 0.975 ± 0.057
CAATGAACAC | 1.04 ± 0.031
CAATGAGGG | 0.997 ± 0.022
CAATGCGGTA | 0.976 ± 0.046
CAATGGCCGA | 0.9978 ± 0.0068
CAATGGGACG | 1.03 ± 0.098
CAATGGGTAT | 0.978 ± 0.014
CAATGGGTCT | 0.9523 ± 0.0028
CAATGGTTTG | 1 ± 0.018
CAATGTGGCG | 0.922 ± 0.038
CAATGTGGGG | 0.989 ± 0.056
CAATTAACGG | 1.04 ± 0.027
CAATTAGGAG | 0.979 ± 0.024
CAATTAGTGA | 1.01 ± 0.028
CAATTCGCTA | 1.21 ± 0.089
CAATTGCGCT | 1.01 ± 0.016
CAATTGGAAC | 0.99578 ± 8.3e-05

Sequence | switch fluorescence ratio
CAATTGGACA | 0.982 ± 0.01
CAATTGGGGA | 0.995 ± 0.029
CAATTGTACG | 1 ± 0.011
CAATTGTTCC | 1.04 ± 0.021
CAATTTAGCG | 1.02 ± 0.032
CAATTTAGTG | 1 ± 0.047
CAATTTGATG | 0.979 ± 0.05
CACAAAAATT | 1.01 ± 0.024
CACAAGCACT | 1.28 ± 0.069
CACAAGGCGG | 1.03 ± 0.041
CACAAGGGCC | 1.03 ± 0.018
CACAATAGAT | 1.02 ± 0.022
CACAATTTTT | 0.991 ± 0.025
CACACGGTTC | 1.02 ± 0.028
CACACTGGCA | 0.996 ± 0.05
CACAGCGTCG | 1 ± 0.017
CACAGGGCTG | 1.026 ± 0.0059
CACAGGGGGG | 1.19 ± 0.34
CACATAGACG | 1.03 ± 0.046
CACATGACAC | 1.13 ± 0.015
CACATGGTCG | 0.997 ± 0.02
CACATGGTGT | 1.15 ± 0.02
CACCACGGCA | 1.1 ± 0.045
CACCCTTTGT | 0.9912 ± 0.0036
CACCGAAATG | 1.17 ± 0.1

Sequence | switch fluorescence ratio
CACCGAGATT | 1.07 ± 0.076
CACCGAGTTA | 1.04 ± 0.032
CACCGGGATG | 1.31 ± 0.099
CACCGGGGTG | 0.995 ± 0.13
CACCGTGTCT | 1.02 ± 0.016
CACCTAGGCT | 1.055 ± 0.0048
CACCTGTTTT | 1.02 ± 0.033
CACGAAGACC | 1.197 ± 0.0068
CACGAAGGAA | 1.07 ± 0.019
CACGCGTGGA | 1.003 ± 0.0055
CACGGATTCA | 0.988 ± 0.043
CACGGCACGA | 1.36 ± 0.073
CACGGCAGGG | 1.01 ± 0.012
CACGGCGACA | 1.15 ± 0.027
CACGGGAACA | 1.082 ± 0.0053
CACGGGATGC | 1.58 ± 0.12
CACGGGGGCG | 1 ± 0.049
CACGGGGGGA | 0.99 ± 0.033
CACGGGTTGC | 1.02 ± 0.031
CACGGTTGGG | 0.976 ± 0.034
CACGTAGTAA | 1.13 ± 0.03
CACGTATGTT | 1.09 ± 0.021
CACGTCTAGG | 1.05 ± 0.048
CACGTGCCAG | 0.985 ± 0.043
CACTCGCCCG | 1.11 ± 0.042

— the supplement of paper PMC10126150
